Assay results taken from the nanobody polyreactivity screen of Harvey et al. (2022).

Experiment: yeast display, Sf9 membrane polyspecificity reagent, FACS + sequencing; frameworks hold sequencing errors
Outline: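 Sorting gates, low and high (top ~1%), were placed on anti-HA fluorescence to track expression and on streptavidin fluorescence to track reagent binding. A clone's polyreactivity label is taken from the gate it came out of. The reagent was 10% biotinylated, detergent-solubilized Sf9 membrane, applied for 1 hour at 4 °C to galactose-induced yeast display cells.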

| Sequence | polyreactivity (PSR sort gate) |
| --- | --- |
| QVQLGESGGGLFQAGGSLRLSCAASGFTFVYYAMGWYRQAPGKERELVATISGNGGRTYYADSVKGRFTISRDNAKNTVYLQMNSLKPEDTAVYYCAALLYISSVGYDYWGQGTQVTVSS | low polyreactivity |
| QVQLGESGGGLFQAGGSLRLSCAASVRIFKGYNMGWYREAPRKEMELVAAISKSGGRTYYADSVKGRFTISRDNAKNTVYLQMNSQKPVDTAVYYCAARGGCKRPFGYQLQYDYWGQGTQVTVSS | high polyreactivity |
| QVQLGESGGGLGQAGGSLSLSCAATGSIFPYNPMGWYRQAPGKERELVATINSRGGRTYYADSVKGRFTISRDNAKNTVYLQMNSLKPEDTAVYYCARYYSSALRYGYWGQGTQVTVSS | low polyreactivity |
| QVQLGESGGGLLQAGGSHSLICADSGSTIRPNAMGWYTQAPGKERELVATIRGGGTSTYYADSVKGRFTISRDNAKNTVYLQLNSLKPEDTAVYYCAARGFYTGSYPGYYYWGQGTQVTVSS | high polyreactivity |
| QVQLGESGGGLLQAGGSLRLSCAASGRISSQYAMGLYRQAPWKERELFAAISTSGDRTYYADSVKGRFTISRDNAKNTVYLQMNSLKPEDTAVYYCAKEGPYTYGRDIYEYWGQGTQVTVSS | low polyreactivity |
| QVQLGESGGGLVEAGGSLRLSCAASGSTFNRYAMGWYRQAPGKERELVAAISFSGGRTYYADSVKGRFTISRDNAKNTVYLQMNSLKPEDTAVYYCAKVVYGYFTRAYTYNYWGHGTQVTVSS | high polyreactivity |
| QVQLGESGGGLVQAGGSLLLSCAASGSIFRHYTMGWDSQAPGKERELVAVISSGGNTNYADSVKGRFTISRDNAKNTVYFQMNSLKPEDTAVYYCAARSHRYYSRVNYWGQGTQVTVSS | high polyreactivity |
| QVQLGESGGGLVQAGGSLRLICAASGRIFYRNAMGWYRQAPGKERELVAGISNRGGSTYYADSVKGRFTISRDNAKNTVYLQMNSLKPEDTAVYYCATVPFSPPSAGPEYDYWGQGTQVTVSS | high polyreactivity |
| QVQLGESGGGLVQAGGSLRLSCAASGFIFRAYAMGWYRQAPGKERELVASISSRGGSTYYADSVKGRFTISRDNAKNTVYLQMNSLKPEDTAVYYCNAVYTYFPGWKYDYWGQGTQVTVSS | high polyreactivity |
| QVQLGESGGGLVQAGGSLRLSCAASGFTSVRYAKGWYRQAPGKERELVAAITWNGGSTYYADSVKGRFTISRDNAKKSVYLQMNSLKPEDTAVYYCAKDTPYRYSVAYDYWGQGTQVTVSS | high polyreactivity |
| QVQLGESGGGLVQAGGSLRLSCAASGIIFDTYAMGWYRQAPGKQRELVAVISTRGTSTYYADSVKGRFTISRDNAKNTVYLQMNSLKPEDTEVYYCNAFGRYSYPTFDYWGQGTQVTVSS | high polyreactivity |
| QVQLGESGGGLVQAGGSLRLSCAASGIIFYRYAMGWYRQAPGKERELVAAITWSGVSTSYADSVKGRFTISRDNAKNTVYLQMNSLKQEDTAVYYCNKDPGTLYGDMDSWGQGTQVTVSS | low polyreactivity |
| QVQLGESGGGLVQAGGSLRLSCAASGRIFGGNAMGRYRQAPGKERELVATISSDGSTNYADSVKGRFTISRDIAKNTVYLQMNSLKPEDTAVYYCAKGFYTLTPHGMDYWGQGTQVTVSS | low polyreactivity |
| QVQLGESGGGLVQAGGSLRLSCAASGRIFNVYAMGWYRQAPGKERELVAAISTGSPTYYADSVKGRFTISRDNAKNTVYLQMNSLKPEDTAVYYCATGYIHGDYWSFRHQYYYWGQGTQVTVSS | low polyreactivity |
| QVQLGESGGGLVQAGGSLRLSCAASGRIFSHNAMGWDRQAPGKERELVAVISRSGTGTYYADSVKGRFTISRDNAKNTVYLQMNSLKPEDTAVYYCNTYYEWWYYWGQGTQVTVSS | high polyreactivity |
| QVQLGESGGGLVQAGGSLRLSCAASGRIFSYYAMGWYRPAPGKERELVAAISYRGSSTNYADSVKGRFTISRDNAKNTVYFQMNSLKPEDTAVYYCATKFFRTAYEYWGQGTQVTVSS | high polyreactivity |
| QVQLGESGGGLVQAGGSLRLSCAASGRIFYKNTMGWYRQAPGKERELVAAISWRGGSTYYADSVKGRFTISRDNAKNTVYLQMNSLKPEDTAVYYCNADIWAYKYDYWGQGTQVTVSS | high polyreactivity |
| QVQLGESGGGLVQAGGSLRLSCAASGRTCWPYARGWYRQAPGKEMELVAAISRGDRTHYADSVKGRFTISRDNAKKTVYLQMNSLIPEVTAVFYCAADSRYYYYVYKISGDYDSWGQGTHVTVSS | low polyreactivity |
| QVQLGESGGGLVQAGGSLRLSCAASGSIFGSYAMGWYRQAPGKERELVAAISKSGGNTYYADSVKGRFTISRDNAKNTDYLQMNSLKPEDTAVYYCAAYGFYRWRGYDYWGQGTQVTLSS | high polyreactivity |
| QVQLGESGGGLVQAGGSLRLSCAASGSIFGYYAMGWYRQAPGKERELVAAINYSGVSTYYADSVKGRFTISRDNAKNTVYLQMNSLKPEDTAVYYCAALRLYEPGPYGGPLRYGYWGQGTQVTVSS | high polyreactivity |
| QVQLGESGGGLVQAGGSLRLSCAASGSIFIGNAMGWYRQAPGKERELVAAITGRGGRTYYADSVKGRFTISRDNAKNTVYLQMNSLKTEDTAVYYCNAVARQFLYGYWGEGTQVTVSS | high polyreactivity |
| QVQLGESGGGLVQAGGSLRLSCAASGSIFKWYAMGWYRQAPGKERELVAAISASGGSTYYADSVKGRFTISRDNAKNSVYLQMNSLKPEDTAVYYCNTDHYYSSRHYDYWGQGTQVTVSS | low polyreactivity |

| Sequence | polyreactivity (PSR sort gate) |
| --- | --- |
| QVQLGESGGGLVQAGGSLRLSCAASGSIFRRYARGWYRQAPGKERELVAAISSSGGRTYYADSVKGRFTISRDNAKNTVYLQMNSLKPEETAVYYCAKDTYGFAANRPAGDGYWGQGTQVTVSS | high polyreactivity |
| QVQLGESGGGLVQAGGSLRLSCAASGSTFERYSMGWYRQAPGKERELDAAINWSGGGTYYADSVKGRFTISRDNAKNTVYLQMNSLKPEDTAVYYCAADSGNVVFSLWWYEYYYWGQGTQVTVSS | low polyreactivity |
| QVQLGESGGGLVQAGGSLRLSCAASGSTFPRYVMGWYRQAPGKERELVAAISSSSGRTFYADSVKGRFTISRDNAKNTVYLQMNSLKPEDTAVYYCAARTSFNVHYWGQGTQVTVSS | high polyreactivity |
| QVQLGESGGGLVQAGGSLRLSCAASGSTFSCYAMGWYRQAPGKEREFVAAISWSGGSTYYADSVKGRFTISRDTAKNTVYLQMNSLKPEDTEVYYCAATRRGPYWWFGYDYWGQGTQVTVSS | high polyreactivity |
| QVQLGESGGGLVQAGGSLRLSCAASGSTFYPYAIGWYRQAPGKERELVARITRGDGSTYYADSVKGRFTISRDNAKNTVYVQMNSLKPEDTAVYYCIRVEYYTVWGYDYWGQGTQVTVSS | low polyreactivity |
| QVQLGESGGGLVQAGGSLRLSCAASGYIFRIYAMGGYRQAPGKERELVAAISRSGGSTSYADSVKGRFTISRDTAKNTVYLQMNSLKPEDTAVYYCATEIRPSRIAQYDYWGQGTQVTVSS | high polyreactivity |
| QVQLGESGGGLVQAGGSLRLSCSASMGWNSQAPGKERELVAITRTTRTYYADSVKGRFTISRDNAKNTVYLQMNSLKPEDTAVYYCAAPNGPSPYWYNYWGQGTQVTVSS | low polyreactivity |
| QVQLGESGGGLVQAGGSLRLTCAAYGRIYGGNAMGWYRQATGKEWELDAGISRRGGSTYYADSVKGRFTISRDNEKNTVYLQMNRLKPEDTAVYYCYAYYRYSVFAEKYDYWGQGTHVTVSS | high polyreactivity |
| QVQLGESGGGLVQAGGTLRVSCAPSGITFYGYAMGWYRQAPGKERELVAAINRGGTGTYYADSVKGRFTISRDNAKNTVYLQMNSLKPEDTAVYYCNKAGYPIADPTAGKRQFDNWGHGTQVTVSS | low polyreactivity |
| QVQLGESGGGLVQSGGSLRLSCAASGRTFCYYAMGWYRQAPGKERELVAAITNRGGNKYYADSVKGRFTISRDNAKNTVYLQMNSLKPEDTAVYYCAAYNRIYGYHTLYYWGQGTQVTVSS | high polyreactivity |
| QVQLGESGRGLVQEGGSLGLICAASGGIFKYNAMGWYRQAPGKERELVAAIRSTGSTYADSVKGRFTISRDNAKNTVYLQMNSLKPEDTAVYYCAAQYWRRKKYYYWGQGTQVTVSS | high polyreactivity |
| QVQLGESRRGLVQAGGSLRLSCAASGITFWYNATGWYRQSPGKERELDAAISRSAGSTYYADSVKGRFTISRDNAKNTVYLQMNSLKPEDTAVYYCAAKTPGRYYYWGQGTQVTVSS | high polyreactivity |
| QVQLHESGGGLVQAGGSLRLSCAASGTISYAGPMGWYRQAPGKEREFVAAIGVGSNTNYADSVKGRYTIIRDNAKNTVYLQMNSLKPEDTAVYYCAVGGYAPLGRPYWCQGTQVTVSS | low polyreactivity |
| QVQLHESGGGLVQAGGSLRMSCAASGTISVTYNKGWYRQAPGKEREFVAGNSTGATTNYADSVKGRFTISRDNAKNCVYLQMNSLKPDDTAVYYCAAHIYRQDHFYYWGQGTQVTVSS | low polyreactivity |
| QVQLHESGGGLVQSGGSLRLSCAASGTISYAGPMGWYPQAPGKEREFVAGIGVGSNTNYADSVKGRYTIIRDNAKNTVYLQMNSLKPVDTAVYYCAVGGYAPLGRPYCGQGTQVTVSS | low polyreactivity |
| QVQLHESGGGMVQAGGSLRLSCAASGTISYAGPMGWYRQAPGKEREFVAGIGVGSNTNYADSVKGRYTIIRDNAKNTVYLKMNSLKPEDTAVYYCGVGVYAQLGRPYWGQGTQVTVSS | low polyreactivity |
| QVQLHESGSGLVQAGGSLRLSCAASGAIFPANLMGWYRQAPGKERELVAGISYGSITYCADSVKGRFNISRDNAKHTVYLQMNSLKPEDTAVYYCEVWRPGGDEYYYWGQGTQVTVSS | low polyreactivity |
| QVQLLDSGGGLVQAGGSLRLSCDASGRTIDIYAMGWYRQAPGKERELVAAISSGGSTYYADSVKGRFTISRDNAKNTVYLQMNSLKPEDTAVYYCAVRWYDQVSRRGIGYYWGQGTQVTVSS | low polyreactivity |
| QVQLLEAGGGLVQAGGSLRFSCAHSGSIVSHYAIGWYRQAPGKERELVAAITGGGITYYADSVKGRFTISRDNAKNTVYLQMNSLKPEDTAVDYCDTDSLMFTIYDYWGQGTQVTVSS | low polyreactivity |
| QVQLLESAGGLVQAGGSLRLRCSASGYISCDASMGWYRHAPGKERELAASITKGSSTNYADSEKGRFTIRDNAINTVYLQMNSLKPEDTAVCYCAVTYPYWGDYTYWGHGTQVTVSS | low polyreactivity |
| QVQLLESGAGLVQAGGSLRLICAASVNTFYWYAMGRYRQAPGKERELVAAITWSGGSTHYADSVKGRFTISRDNAKNTVYLQMNSLTPEYTAVYYCAARYFRWWDMGYWGQGTQVSVSS | high polyreactivity |
